Assay: yeast display, Sf9 membrane polyspecificity reagent, FACS + sequencing; frameworks hold sequencing errors
How it was run: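 Nanobodies came from a synthetic yeast display library in Saccharomyces cerevisiae BJ5465, induced with galactose for 36–48 hours and stained for 1 hour at 4 °C with 10% biotinylated, detergent-solubilized Sf9 membrane reagent. Cells were enriched on streptavidin microbeads and then FACS-sorted, with low and high (top ~1%) gates set on anti-HA fluorescence for expression and streptavidin fluorescence for reagent binding. Each polyreactivity label reflects the gate a clone came from. Genes were amplified by colony PCR, sequenced by MiSeq 2 × 250 and filtered by CDR length.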

| Sequence | polyreactivity (PSR sort gate) |
| --- | --- |
| QVQLVESGGGLVQAGGSLRLSCAASGRIFYAYAMGWYRQAPGKERELVATITYGGGSTYYADSVKGRFTISRDNAKNTVDLQMNSLKPEATAVYYCAADRTGSTLYTIRYYYWGQGTQVTVSS | low polyreactivity |
| QVQLVESGGGLVQAGGSLRLSCAASGRIFYDNAMGWYSQAPGKERELVAAIRIGGSTNYADSVKGRFTISRDNAKNTVYLLMNSLKPEDTAVYYCNRSDNPDSYYPDSVWGDSWGQGTQVTVSS | low polyreactivity |
| QVQLVESGGGLVQAGGSLRLSCAASGRIFYDYDMGWYRQAPGKERELVAAISYGGGTTYYADSVKGRFTISRDNAKNTVYLQMTSLKPEDTAVYYCAAEYASGSYDEYDYWGQGTQVTVSS | low polyreactivity |
| QVQLVESGGGLVQAGGSLRLSCAASGRIFYEYAMGWYRQAPGKEREVVAAISNSGGSTSYADSVKGRFSISRDNATNTDYLQMNSLQPEDTAVSYCAAGSHSGRAYYYWGEGTQVTVSS | high polyreactivity |
| QVQLVESGGGLVQAGGSLRLSCAASGRIFYFNAMGWYRQAPGKERELVAAISGSGGDTYYADSVKGRFTISRDNAKNTVYLQMNSLKPEDTAVYYCAAEVYTWGQGTQVTVSS | low polyreactivity |
| QVQLVESGGGLVQAGGSLRLSCAASGRIFYFNAMGWYRQAPGKERELVADMSSGGRTNYADSVKGRFTISRDNEKNSVYLQMNSLKPEDSAVYYWIAEPYTSSVGYRGYDFDDWGQGTQVTVSS | low polyreactivity |
| QVQLVESGGGLVQAGGSLRLSCAASGRIFYFNTMGWSRQAPGKERELVAAISKNGGSTYYADSVKGRFTISRDTAKNTVYLQMNSLKPEDTAVYYCAKTRRLSPYDYWGQGTQVTVSS | high polyreactivity |
| QVQLVESGGGLVQAGGSLRLSCAASGRIFYFYAMGWYRQAPGKERELVAAINIGGSTNYADSVKGRFTISRDNAKNTVYLQMNSLKPEDTAVYYCNAEAYSRSDYYRYDYWGQGTQVTVSS | low polyreactivity |
| QVQLVESGGGLVQAGGSLRLSCAASGRIFYGNAMGWYRQAPGKERQLVAAITDGGSTNYADSVKGRFTISRDNAKNTVYLQMNSLKPEDTAVYYCAKDYRGSYYKYDYWGQGTQVTVSS | low polyreactivity |
| QVQLVESGGGLVQAGGSLRLSCAASGRIFYGYAMGWYRQAPGKERELVAAITRSGGSTYYADSVKGRFTISRDTAKNTVYLQMNSLKPEDTAVYYCNAQWGYRTSFDYGYWGQGTQVTVSS | low polyreactivity |
| QVQLVESGGGLVQAGGSLRLSCAASGRIFYGYAMGWYRQAPGKERELVAAITSGSRTNYADSVKGRFTISRDNAKNTVYLQMNSLKPEDTAVYYCHSRYGSYLYSLVHNTRYDYWGQGTQVTVSS | low polyreactivity |
| QVQLVESGGGLVQAGGSLRLSCAASGRIFYGYAMGWYRQAPGKERELVAAITVSGGDTYYADSVKGRFTISRDNAKNTVYLQMNSLKPEDTAVYYCAAKADKRLDYWGQGTQVTVSS | low polyreactivity |
| QVQLVESGGGLVQAGGSLRLSCAASGRIFYGYARGWYRQAPGKDRELVAAIRWYGGNTYYADSVKGRFTISRDNAKNTVYLQMNSLKPEDTAVYYCNARTEYASSRYYYWGQGTQVTVSS | high polyreactivity |
| QVQLVESGGGLVQAGGSLRLSCAASGRIFYGYTMGWYRQAPGKERELVASIDYSTGRTYYADSVKGRFTISRDNAKNTVYLQMNSLKPEDTAVYYCNADPNYSLLRYDYWGQGTQVTVSS | high polyreactivity |
| QVQLVESGGGLVQAGGSLRLSCAASGRIFYGYTMGWYRQAPGKERELVASITIRGSRTYYADSVKGRFTISRDNAKNTVYLQMNSLKPEDTAVYYCAADFVPARTVHRYDYWGQGTQVTVSS | low polyreactivity |
| QVQLVESGGGLVQAGGSLRLSCAASGRIFYGYVMGWYRQAPGKERELVAAISWSAGRTYYADSVKGRFTISRDNAKNTVYLQMNSLKPEDTAVYYCAARYFSLYVWSTFEYWGQGTQVTVSS | high polyreactivity |

| Sequence | polyreactivity (PSR sort gate) |
| --- | --- |
| QVQLVESGGGLVQAGGSLRLSCAASGRIFYHNTMGWYRQAPGKERELVAAITTSGSTYYADSVKGRFTISRDNAKNSVYLQMNSLKPEDTSVYYCAARALRWFNYWGQGTQVTVSS | high polyreactivity |
| QVQLVESGGGLVQAGGSLRLSCAASGRIFYHYAMGGYRPAPGKERELVAAISSSTGRSYYADSVKGRFTFSRDNAKNTVYLQMNSLKPEDSAVYYCATTPGYYGYISPRIRLYDYWGQGTQVTVSS | high polyreactivity |
| QVQLVESGGGLVQAGGSLRLSCAASGRIFYHYAMGWYRQAPGKERELVAAITWSGVSTYYADSVKGRFTISRDNAKNTVYLQMNSLKPDDTAVYYCATSSRYGVRRYSRGSWGQGSQVTVSS | high polyreactivity |
| QVQLVESGGGLVQAGGSLRLSCAASGRIFYHYAMGWYRQAPGKERELVAVIRSTGSTNYADSVKGRFTISRDNAKNTVYFQLKSLIPEDTAVYYCAVRRATFSYWYFNGGYWGQGTQVTVSS | high polyreactivity |
| QVQLVESGGGLVQAGGSLRLSCAASGRIFYINALGWYRQAPGKERELVASITGSGDSTYYADSVKGRFTISRDNAKNTVELQMNSLKPEDTAVYYCAARTYYYYGPRYYYWGQGTQVTVSS | low polyreactivity |
| QVQLVESGGGLVQAGGSLRLSCAASGRIFYIYAMGWYRQAPGKERELVASITSSGTSTYADSVKGRFTISRDNAKNTVYLQMNSLKPEDTAVYYCNARGYPKSWRYSRGYEYWGQGTQVTVSS | low polyreactivity |
| QVQLVESGGGLVQAGGSLRLSCAASGRIFYKYAKGWYRQAPGKERELVAAITTSGGSTYYADSVKGRFTISRDNAKNTVYLQMKSLKPEDTAVYYCARDLNGRFLTTGRGMDYWGQGTQVTVSS | high polyreactivity |
| QVQLVESGGGLVQAGGSLRLSCAASGRIFYKYAMGWYRPAPGKERELVAAISWSGGRTYYADSVKGRFTISRDNAKNTVYLQMNSLKPEDTAVYYCNAVYAGFLRVRYDYWGQGTQVTVSS | high polyreactivity |
| QVQLVESGGGLVQAGGSLRLSCAASGRIFYKYAMGWYRQAPGKERELVAAISWSGGRTYYADSVKGRFTISRDNAKNTVYLQMNSLKPEDTAVYYCAAVRGGASGGYDYWGQGTQVTVSS | high polyreactivity |
| QVQLVESGGGLVQAGGSLRLSCAASGRIFYKYVMGWYRQAPGNERELVATITSGGSTYYADSVKGRFTISRDNAKNTVYLQMNSLKPEDTAVYYCAARKYYSRAYDYWGQGTQVTVSS | high polyreactivity |
| QVQLVESGGGLVQAGGSLRLSCAASGRIFYLNAMGWYRQAPGKERELVAGITNSTTGTYYADSVKGRFTISRDNAKNTVYLQMNCLKPEDTAVYYCITDVAYEEPVETYDYWGQGTQVTVSS | low polyreactivity |
| QVQLVESGGGLVQAGGSLRLSCAASGRIFYNVMGWYRQAPGKERELVAAISSSGGRTYYADSVKGRFTISRDNAKNTVYLQMNSLKPEDTAVYYCAARAWYYGYWGQGTQVTVSS | high polyreactivity |
| QVQLVESGGGLVQAGGSLRLSCAASGRIFYNYAMGWYRQAPGKERELLAAISWSGTSTYYADSVKGRFTISRDNAKNTVYLQMNSLKPEDTAVYYCATDRTYTARGYYLEYHRYDYRGQGTQVTVSS | low polyreactivity |
| QVQLVESGGGLVQAGGSLRLSCAASGRIFYNYAMGWYRQAPGKERELVAAISGSGGSTYYADSVKGRFTISRDNAKKTVYLQMNSLKPEDTAVYYCSTSGPQYYSRNFDYWGQGTQVTVSS | low polyreactivity |
| QVQLVESGGGLVQAGGSLRLSCAASGRIFYNYAMGWYRQAPGKERELVAAISGSGGSTYYADSVKGRFTISRDNAKNTVYLQMNSLKPEDTAVYYCAKDYRWDRKFDYWGQGTQVTVSS | low polyreactivity |
